# Results taken from the supplement of paper PMC10065799, “High-throughput profiling of sequence recognition by tyrosine kinases and SH2 domains using bacterial peptide display” (eLife, 2023).
# Columns and labels:
# [1] = target: Fes (UniProt P07332); assay: phosphorylation enrichment, bacterial display (enrichment ratio); higher = better substrate or ligand; peptides without Tyr show the background
# [2] = target: EPHB1 (UniProt P54762); assay: as above
# [3] = target: Fyn (UniProt P06241); assay: as above
# Fyn, sequence (P06241 whole entry, looked up): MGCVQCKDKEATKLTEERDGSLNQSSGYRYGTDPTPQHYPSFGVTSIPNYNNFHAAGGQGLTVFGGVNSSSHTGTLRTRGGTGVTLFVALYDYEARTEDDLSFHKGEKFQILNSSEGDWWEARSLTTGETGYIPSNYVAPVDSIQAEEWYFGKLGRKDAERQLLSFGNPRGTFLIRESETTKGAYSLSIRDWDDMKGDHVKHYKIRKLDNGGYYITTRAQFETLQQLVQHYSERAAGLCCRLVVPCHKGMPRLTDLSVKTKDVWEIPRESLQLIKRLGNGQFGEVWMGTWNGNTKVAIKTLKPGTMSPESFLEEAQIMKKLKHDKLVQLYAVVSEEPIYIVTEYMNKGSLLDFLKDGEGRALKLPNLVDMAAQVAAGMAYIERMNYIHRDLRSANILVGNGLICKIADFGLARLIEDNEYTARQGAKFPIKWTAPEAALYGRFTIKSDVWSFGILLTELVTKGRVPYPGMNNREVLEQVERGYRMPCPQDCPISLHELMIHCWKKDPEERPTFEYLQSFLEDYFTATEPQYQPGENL
# [4] = test system: AncSZ; assay: as above
# [5] = target: Hck (UniProt P08631); assay: as above
# Hck, sequence (P08631 whole entry, looked up): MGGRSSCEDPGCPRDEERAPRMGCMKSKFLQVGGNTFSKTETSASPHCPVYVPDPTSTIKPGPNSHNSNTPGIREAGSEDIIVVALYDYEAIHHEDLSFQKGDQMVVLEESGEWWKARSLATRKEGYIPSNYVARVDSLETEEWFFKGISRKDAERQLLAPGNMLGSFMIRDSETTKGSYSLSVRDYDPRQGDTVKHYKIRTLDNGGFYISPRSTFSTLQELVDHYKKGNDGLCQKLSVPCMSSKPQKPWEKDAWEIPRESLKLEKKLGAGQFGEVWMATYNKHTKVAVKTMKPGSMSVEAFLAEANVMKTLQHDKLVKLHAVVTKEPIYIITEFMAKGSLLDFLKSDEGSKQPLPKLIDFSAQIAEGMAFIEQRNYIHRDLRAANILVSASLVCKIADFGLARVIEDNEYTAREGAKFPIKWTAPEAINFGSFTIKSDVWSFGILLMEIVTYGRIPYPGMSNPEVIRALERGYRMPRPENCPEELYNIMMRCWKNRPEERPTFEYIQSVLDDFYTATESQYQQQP
# [6] = test system: c-Abl (mouse); assay: as above
# [7] = target: EPHB2 (UniProt P29323); assay: as above
# EPHB2, sequence (P29323 whole entry, looked up): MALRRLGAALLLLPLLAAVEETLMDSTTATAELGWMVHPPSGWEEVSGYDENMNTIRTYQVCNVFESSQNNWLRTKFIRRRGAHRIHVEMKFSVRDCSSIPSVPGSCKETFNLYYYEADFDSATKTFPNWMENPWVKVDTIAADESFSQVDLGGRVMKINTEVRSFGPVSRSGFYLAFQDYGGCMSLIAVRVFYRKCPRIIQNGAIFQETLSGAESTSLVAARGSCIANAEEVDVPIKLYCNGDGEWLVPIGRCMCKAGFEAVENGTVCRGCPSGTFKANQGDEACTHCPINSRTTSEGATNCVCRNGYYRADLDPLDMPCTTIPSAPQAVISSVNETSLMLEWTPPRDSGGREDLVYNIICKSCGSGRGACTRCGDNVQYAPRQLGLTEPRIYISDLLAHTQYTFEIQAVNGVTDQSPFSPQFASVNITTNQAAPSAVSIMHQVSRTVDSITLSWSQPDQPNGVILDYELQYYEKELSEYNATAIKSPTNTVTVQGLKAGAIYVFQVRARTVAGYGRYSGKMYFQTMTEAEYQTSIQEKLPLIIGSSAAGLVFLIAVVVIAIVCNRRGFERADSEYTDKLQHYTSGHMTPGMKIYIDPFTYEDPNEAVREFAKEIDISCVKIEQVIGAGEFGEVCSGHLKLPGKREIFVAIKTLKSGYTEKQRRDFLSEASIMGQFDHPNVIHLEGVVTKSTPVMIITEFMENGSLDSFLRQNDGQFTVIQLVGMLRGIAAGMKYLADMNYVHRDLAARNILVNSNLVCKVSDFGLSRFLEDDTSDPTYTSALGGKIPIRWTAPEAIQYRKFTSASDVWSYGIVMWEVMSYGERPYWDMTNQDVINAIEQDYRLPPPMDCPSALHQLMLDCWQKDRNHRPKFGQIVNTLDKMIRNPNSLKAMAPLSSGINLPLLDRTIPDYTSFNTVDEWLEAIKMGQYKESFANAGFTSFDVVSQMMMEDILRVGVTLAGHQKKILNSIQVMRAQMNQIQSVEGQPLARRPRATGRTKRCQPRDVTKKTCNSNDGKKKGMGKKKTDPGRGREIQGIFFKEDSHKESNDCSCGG
# [8] = target: FGFR1 (UniProt P11362); assay: as above
# [9] = target: FGFR3 (UniProt P22607); assay: as above
# FGFR3, sequence (P22607 whole entry, looked up): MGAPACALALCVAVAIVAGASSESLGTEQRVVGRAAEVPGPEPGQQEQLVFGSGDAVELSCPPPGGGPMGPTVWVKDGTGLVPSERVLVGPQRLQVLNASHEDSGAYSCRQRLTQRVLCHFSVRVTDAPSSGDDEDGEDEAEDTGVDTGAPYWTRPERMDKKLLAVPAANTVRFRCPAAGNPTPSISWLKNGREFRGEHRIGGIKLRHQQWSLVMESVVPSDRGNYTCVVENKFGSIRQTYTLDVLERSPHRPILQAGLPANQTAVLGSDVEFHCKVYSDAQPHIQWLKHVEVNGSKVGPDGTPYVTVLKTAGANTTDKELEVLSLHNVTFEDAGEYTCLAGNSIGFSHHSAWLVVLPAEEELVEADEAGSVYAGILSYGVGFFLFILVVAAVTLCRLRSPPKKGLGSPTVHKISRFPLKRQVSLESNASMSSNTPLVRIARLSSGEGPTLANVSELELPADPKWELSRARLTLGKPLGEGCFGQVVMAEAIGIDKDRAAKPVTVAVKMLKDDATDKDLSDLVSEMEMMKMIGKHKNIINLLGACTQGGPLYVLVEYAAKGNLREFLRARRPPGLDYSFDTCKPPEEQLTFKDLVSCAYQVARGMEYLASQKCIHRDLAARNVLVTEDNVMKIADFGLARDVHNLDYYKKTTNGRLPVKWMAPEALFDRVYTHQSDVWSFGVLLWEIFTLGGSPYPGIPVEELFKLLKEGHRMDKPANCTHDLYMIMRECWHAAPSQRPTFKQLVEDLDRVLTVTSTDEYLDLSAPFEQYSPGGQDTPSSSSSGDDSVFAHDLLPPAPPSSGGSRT
# [10] = test system: Fer (mouse); assay: as above
# [11] = target: Jak2 (UniProt O60674); assay: as above
# Jak2, sequence (O60674 whole entry, looked up): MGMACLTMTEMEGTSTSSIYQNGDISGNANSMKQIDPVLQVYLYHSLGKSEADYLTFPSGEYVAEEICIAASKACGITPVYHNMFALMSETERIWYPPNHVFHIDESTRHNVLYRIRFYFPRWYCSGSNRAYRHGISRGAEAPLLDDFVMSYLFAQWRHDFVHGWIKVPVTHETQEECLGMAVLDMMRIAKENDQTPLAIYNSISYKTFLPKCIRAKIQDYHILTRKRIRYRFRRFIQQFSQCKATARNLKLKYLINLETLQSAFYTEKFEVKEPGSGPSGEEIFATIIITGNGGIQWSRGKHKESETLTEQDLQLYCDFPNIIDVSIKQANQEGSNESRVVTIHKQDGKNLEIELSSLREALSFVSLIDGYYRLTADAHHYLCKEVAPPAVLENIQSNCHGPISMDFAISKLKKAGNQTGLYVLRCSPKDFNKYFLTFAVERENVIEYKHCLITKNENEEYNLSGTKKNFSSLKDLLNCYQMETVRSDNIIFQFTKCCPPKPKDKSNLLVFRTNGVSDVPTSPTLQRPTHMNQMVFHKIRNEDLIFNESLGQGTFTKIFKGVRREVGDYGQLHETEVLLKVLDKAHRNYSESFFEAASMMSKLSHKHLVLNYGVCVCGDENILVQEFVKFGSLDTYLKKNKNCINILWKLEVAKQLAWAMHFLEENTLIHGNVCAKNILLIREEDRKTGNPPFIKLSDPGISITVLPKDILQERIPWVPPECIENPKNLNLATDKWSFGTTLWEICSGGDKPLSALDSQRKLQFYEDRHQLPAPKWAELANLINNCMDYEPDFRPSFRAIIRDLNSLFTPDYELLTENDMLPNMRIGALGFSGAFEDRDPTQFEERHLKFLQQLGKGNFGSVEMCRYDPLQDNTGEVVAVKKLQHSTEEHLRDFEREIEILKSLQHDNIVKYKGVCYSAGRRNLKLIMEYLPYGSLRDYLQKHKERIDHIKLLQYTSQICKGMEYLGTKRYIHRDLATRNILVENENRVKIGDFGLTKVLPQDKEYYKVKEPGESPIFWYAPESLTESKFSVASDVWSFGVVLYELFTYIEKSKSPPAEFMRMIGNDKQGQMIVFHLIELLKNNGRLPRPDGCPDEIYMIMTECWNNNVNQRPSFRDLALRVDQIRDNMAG
# [12] = test system: c-Src; assay: as above
# [13] = target: MERTK (UniProt Q12866); assay: as above
# [14] = target: c-Src SH2; assay: SH2 binding enrichment of the phosphorylated peptide, bacterial display (enrichment ratio); higher = better substrate or ligand; peptides without Tyr show the background
# [15] = target: Grb2 SH2 (UniProt P62993); assay: as above
# [16] = target: SHP2-C SH2; assay: as above
# 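Wherever SH2 binding enrichment of the phosphorylated peptide, bacterial display is given: peptide library displayed on the E. coli surface as eCPX fusions, selected cells deep-sequenced, score is each peptide's frequency after selection divided by its frequency in the input.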
# 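Wherever phosphorylation enrichment, bacterial display is given: 11-residue human phosphosite peptides and single-mutation variants displayed on the E. coli surface, counted by deep sequencing, each peptide's frequency after selection divided by its frequency in the unselected input library; frequency after pTyr selection over input frequency; kinase dosed for 20-30% of maximal phosphorylation in three min.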
# Fes, sequence (P07332 whole entry, looked up): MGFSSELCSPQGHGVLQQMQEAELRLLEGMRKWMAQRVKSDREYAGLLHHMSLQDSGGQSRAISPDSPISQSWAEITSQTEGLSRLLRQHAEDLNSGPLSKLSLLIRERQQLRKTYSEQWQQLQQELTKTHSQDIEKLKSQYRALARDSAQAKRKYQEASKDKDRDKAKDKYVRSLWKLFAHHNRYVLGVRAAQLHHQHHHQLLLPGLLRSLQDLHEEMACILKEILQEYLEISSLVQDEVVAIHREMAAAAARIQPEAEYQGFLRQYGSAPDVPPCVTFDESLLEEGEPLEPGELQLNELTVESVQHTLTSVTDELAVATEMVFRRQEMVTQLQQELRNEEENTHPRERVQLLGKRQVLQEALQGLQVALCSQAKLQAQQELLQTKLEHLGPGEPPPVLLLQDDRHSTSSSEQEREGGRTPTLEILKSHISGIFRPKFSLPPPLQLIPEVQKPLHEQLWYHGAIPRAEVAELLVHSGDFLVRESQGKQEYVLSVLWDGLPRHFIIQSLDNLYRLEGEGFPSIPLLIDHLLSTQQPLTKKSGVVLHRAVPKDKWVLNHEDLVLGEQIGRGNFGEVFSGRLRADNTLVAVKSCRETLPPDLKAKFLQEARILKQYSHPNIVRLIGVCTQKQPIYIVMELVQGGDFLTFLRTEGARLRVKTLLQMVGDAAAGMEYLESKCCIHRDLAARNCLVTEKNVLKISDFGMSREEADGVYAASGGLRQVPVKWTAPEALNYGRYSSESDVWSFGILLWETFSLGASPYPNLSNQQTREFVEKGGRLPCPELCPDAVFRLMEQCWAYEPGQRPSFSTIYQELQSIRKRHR
SH2 binding enrichment [14],SH2 binding enrichment [15],SH2 binding enrichment [16],Sequence,phosphorylation enrichment [1],phosphorylation enrichment [2],phosphorylation enrichment [3],phosphorylation enrichment [4],phosphorylation enrichment [5],phosphorylation enrichment [6],phosphorylation enrichment [7],phosphorylation enrichment [8],phosphorylation enrichment [9],phosphorylation enrichment [10],phosphorylation enrichment [11],phosphorylation enrichment [12],phosphorylation enrichment [13]
2,0.884,1.61,VYSIDYYRVGG [NTRK2_Y706_T704I],0.836,4.12,6.29,2.29,3.95,0.788,3.13,10.9,9.09,3.79,7.33,5.1,9.3
0.933,1.27,1.14,RARPPYTVAAD [ANKZF1_Y572],0.591,0.4,0.35,0.551,0.45,0.466,0.378,0.39,0.458,0.443,0.58,0.349,0.418
0.673,0.749,1.15,FADIAYSFRHG [PAH_Y166_N167S_YF],0.674,0.344,0.443,0.62,0.44,0.463,0.383,0.313,0.491,0.393,0.422,0.64,0.33
0.531,0.757,0.721,LKMLVYLDMSK [LRRC7_Y234],1.72,1.01,0.654,1.36,0.559,1.18,0.805,0.347,1.13,0.475,1.24,0.441,0.545
2.68,0.766,0.717,LPSKDYAEVGR [HP_Y272],2.22,1.15,0.735,0.654,0.951,0.726,1.24,0.918,0.895,0.801,0.684,0.709,0.801
1.57,1.82,1.84,LLVVLCKFRCF [PSEN1_Y154_Y154C_YF],1.73,0.619,0.731,1.4,0.887,1.23,0.694,0.648,0.999,0.722,1.82,1.48,0.984
0.53,0.945,1,DEFLEYRRIVG [FAM221A_Y20_YF],1.17,0.469,0.505,0.83,0.537,0.797,0.439,0.466,0.551,0.526,0.964,0.507,0.493
0.424,0.665,0.503,GLNKGYRMVVN [HINT1_Y94],0.696,0.307,0.375,0.531,0.436,0.461,0.392,0.388,0.449,0.318,0.403,0.34,0.303
0.66,0.772,0.478,TFEYRYLEDQD [CNOT3_Y746_R750Q],1.15,0.566,0.438,1.22,0.637,0.673,0.553,0.77,0.823,0.518,0.916,0.54,0.44
0.454,1.06,0.716,MARDISRASFF [ALK_Y1278_Y1278S_YF],0.682,0.463,0.443,0.626,0.384,0.545,0.467,0.41,0.473,0.392,0.53,0.396,0.432
0.405,0.577,0.8,TDVSLYPSGGT [TENM4_Y399],0.552,0.331,0.353,0.676,0.409,0.585,0.512,0.355,0.428,0.535,0.578,0.269,0.435
0.444,0.723,0.469,SVTCTYSPGLN [TP53_Y126_A129G],1.57,0.761,0.525,1.42,0.595,1.05,0.686,0.511,0.998,0.609,1.46,0.612,0.454
0.422,0.83,0.693,KPVDTYFDSTR [DYNC2H1_Y2230_M2227V_YF],0.997,0.668,0.567,0.925,0.565,0.611,0.556,0.624,0.73,0.472,0.723,0.43,0.54
0.491,0.668,0.771,FPPISYLNAIS [MVD_Y276],0.675,0.383,0.488,0.813,0.465,0.664,0.472,0.473,0.522,0.408,0.51,0.466,0.49
1.92,1.77,15.5,SHNKYYMLVAR [MFSD8_Y134],0.939,0.943,0.494,0.825,0.658,0.6,0.675,5.4,3.28,0.486,1.14,0.487,2.9
1.14,1.44,1.15,NNTFLYQLVFD [EXO1_Y284],1.21,5.34,1.7,1.35,2.58,0.684,4.11,1.65,1.72,4.67,1.14,2.28,5.99

SH2 binding enrichment [14],SH2 binding enrichment [15],SH2 binding enrichment [16],Sequence,phosphorylation enrichment [1],phosphorylation enrichment [2],phosphorylation enrichment [3],phosphorylation enrichment [4],phosphorylation enrichment [5],phosphorylation enrichment [6],phosphorylation enrichment [7],phosphorylation enrichment [8],phosphorylation enrichment [9],phosphorylation enrichment [10],phosphorylation enrichment [11],phosphorylation enrichment [12],phosphorylation enrichment [13]
0.485,0.887,0.787,MANYMYKAGPS [MAML2_Y515],0.616,1.32,0.508,0.636,0.51,1.04,0.963,0.465,0.496,0.358,0.497,0.556,0.584
0.449,0.814,0.86,IGDENYGEGSS [ACO2_Y665],1.18,0.511,0.529,1.25,0.59,0.882,0.606,0.533,0.738,0.518,1.39,0.522,0.586
0.464,1.17,1.12,LKTNWYNNGKD [DNMT3B_Y404_C403W],1.44,0.468,0.544,1.54,1.01,1.62,0.688,0.664,1.05,0.644,1.18,0.838,0.736
0.557,0.978,0.831,NVVQEYERVII [NPHS2_Y131_K126N],0.942,2.13,0.47,1.17,0.589,0.633,2.22,0.59,0.668,4.44,0.772,0.485,0.442
0.505,0.852,0.735,NNRVFYGNSDR [RS1_Y177],0.536,0.284,0.395,0.437,0.337,0.499,0.378,0.375,0.411,0.338,0.546,0.414,0.315
0.491,0.698,0.663,GGQSVYHVNLH [HINT1_Y109_H112N],0.617,0.495,1.01,0.583,0.583,0.491,0.364,0.429,0.376,0.337,0.491,1.03,0.387
0.392,0.806,0.736,PEADKYRLTYA [FGG_Y300],1.51,0.832,0.626,1.61,1.62,0.825,1.09,0.888,1.14,0.828,1.13,0.604,0.777
0.508,0.758,0.583,WAAQRYGRELR [BAD_Y110],0.742,0.406,0.445,0.887,0.476,0.599,0.433,0.464,0.396,0.398,0.782,0.487,0.514
0.3,0.442,0.458,HLQQSYLPRGT [TEX45_Y396],1.26,0.622,0.939,1.04,0.661,1.59,0.773,0.97,0.927,0.697,1.38,1.32,0.66
0.862,1.17,1.08,LDFNEYFRGLN [HPRT1_Y198_D201G_YF],1.45,0.832,0.746,1.29,0.873,0.799,1.41,0.788,0.933,0.62,1.92,0.595,0.714
0.62,0.768,0.781,DAVKHYMQFQK [CNGA2_Y395_R399Q],0.496,0.451,0.429,0.548,0.552,0.356,0.301,0.348,0.449,0.424,0.461,0.485,0.473
0.615,0.714,0.891,CDGKEYDPVEA [MAPRE2_Y167_Y162C],1.66,0.64,0.598,1.36,0.567,0.883,0.66,0.594,0.721,0.65,1.54,0.649,0.541
0.783,1.05,0.82,LRSKQYLRNPP [SHC1_Y315_F312S],0.619,0.426,0.452,0.376,0.4,0.575,0.359,0.277,0.37,0.413,0.355,0.399,0.364
2.26,1.53,1.64,CTTLHYNFMCN [TP53_Y234_I232L_YF],0.78,0.361,0.391,0.718,0.395,0.545,0.406,0.567,0.534,0.708,0.758,0.538,0.424
0.91,1.31,1.28,YQQLFYLLQIN [IQGAP2_Y890_T894I],1.81,1.21,0.625,1.57,0.911,1.3,0.829,2.23,2.15,0.751,1.67,1,1.31
0.626,0.965,0.684,EFNLMYDGAKE [IRF6_Y97_T100A],1.29,0.593,0.594,1.35,0.702,0.857,0.576,0.652,0.845,0.593,1.13,0.584,0.517

Sequence,SH2 binding enrichment [14],SH2 binding enrichment [15],SH2 binding enrichment [16],phosphorylation enrichment [1],phosphorylation enrichment [2],phosphorylation enrichment [3],phosphorylation enrichment [4],phosphorylation enrichment [5],phosphorylation enrichment [6],phosphorylation enrichment [7],phosphorylation enrichment [8],phosphorylation enrichment [9],phosphorylation enrichment [10],phosphorylation enrichment [11],phosphorylation enrichment [12],phosphorylation enrichment [13]
SSENPYATIKD [MEGF10_Y1030],14,0.985,9.45,0.897,0.458,1.52,0.87,1.65,0.741,0.597,0.496,0.53,0.944,0.876,2.31,0.506
